Experimental data reported in PMC9482650, “Quantitative fragmentomics allow affinity mapping of interactomes” (Nature Communications, 2022).
Changes are numbered by the printed parent chain.

T1: APBA1_1, Q02410
T1 sequence (Q02410 651-752, limits assumed, looked up): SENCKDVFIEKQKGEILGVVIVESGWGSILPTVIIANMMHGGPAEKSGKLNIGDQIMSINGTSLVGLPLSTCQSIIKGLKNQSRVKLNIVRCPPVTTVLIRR

T2: APBA1_2, Q02410
T2 sequence (Q02410 742-832, limits assumed, looked up): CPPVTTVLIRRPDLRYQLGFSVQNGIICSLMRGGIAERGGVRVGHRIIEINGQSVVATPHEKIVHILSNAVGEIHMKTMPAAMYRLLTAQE

T3: APBA2_2, Q99767
T3 sequence (Q99767 654-744, limits assumed, looked up): T2 sequence (Q02410 742-832, limits assumed, looked up) with R10K, R15K, P59A, H65Q, I66A, A70S, Y84F, A89G

T4: ARHGEF11, O15085
T4 sequence (O15085 42-136, limits assumed, looked up): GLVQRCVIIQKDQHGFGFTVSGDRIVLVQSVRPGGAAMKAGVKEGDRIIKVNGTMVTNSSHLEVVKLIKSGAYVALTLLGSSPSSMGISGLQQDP

T5: DFNB31_1, Q9P202
T5 sequence (Q9P202 135-233, limits assumed, looked up): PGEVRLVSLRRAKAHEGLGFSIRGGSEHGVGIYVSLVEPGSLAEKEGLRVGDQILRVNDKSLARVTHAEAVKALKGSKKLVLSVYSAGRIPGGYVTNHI

T6: DLG3_3, Q92796
T6 sequence (Q92796 374-475, limits assumed, looked up): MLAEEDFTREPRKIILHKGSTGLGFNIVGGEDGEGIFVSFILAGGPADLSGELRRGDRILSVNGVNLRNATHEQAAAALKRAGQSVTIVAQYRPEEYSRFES

T7: GRIP1_2, Q9Y3R0
T7 sequence (Q9Y3R0 145-248, limits assumed, looked up): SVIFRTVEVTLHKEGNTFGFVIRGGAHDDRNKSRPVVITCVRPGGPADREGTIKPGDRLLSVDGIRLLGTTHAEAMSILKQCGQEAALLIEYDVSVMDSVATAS

T8: GRIP1_3, Q9Y3R0
T8 sequence (Q9Y3R0 247-346, limits assumed, looked up): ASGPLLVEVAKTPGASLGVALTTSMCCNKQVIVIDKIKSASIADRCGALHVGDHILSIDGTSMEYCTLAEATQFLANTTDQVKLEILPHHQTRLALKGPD

T9: GRIP1_4, Q9Y3R0
T9 sequence (Q9Y3R0 467-571, limits assumed, looked up): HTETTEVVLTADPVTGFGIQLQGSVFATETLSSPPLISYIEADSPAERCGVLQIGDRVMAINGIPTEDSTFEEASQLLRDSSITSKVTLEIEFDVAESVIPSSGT

T10: HTRA4, P83105
T10 sequence (P83105 378-476, limits assumed, looked up): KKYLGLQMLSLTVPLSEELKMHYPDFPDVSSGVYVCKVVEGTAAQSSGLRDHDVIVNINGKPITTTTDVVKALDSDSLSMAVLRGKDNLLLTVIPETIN

T11: MPP6, Q9NZW5
T11 sequence (Q9NZW5 125-219, limits assumed, looked up): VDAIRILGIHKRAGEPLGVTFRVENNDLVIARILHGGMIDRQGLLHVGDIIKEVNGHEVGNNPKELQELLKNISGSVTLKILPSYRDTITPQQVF

T12: MPP7, Q5T2T1
T12 sequence (Q5T2T1 134-230, limits assumed, looked up): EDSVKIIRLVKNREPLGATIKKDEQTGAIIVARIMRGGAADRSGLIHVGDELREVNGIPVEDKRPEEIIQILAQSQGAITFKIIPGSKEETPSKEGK

T13: PDZD7_3, Q9H5P4
T13 sequence (Q9H5P4 857-944, limits assumed, looked up): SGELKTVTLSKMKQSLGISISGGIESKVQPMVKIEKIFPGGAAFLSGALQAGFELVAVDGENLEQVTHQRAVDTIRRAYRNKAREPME

T14: SNTG2, Q9NY99
T14 sequence (Q9NY99 68-166, limits assumed, looked up): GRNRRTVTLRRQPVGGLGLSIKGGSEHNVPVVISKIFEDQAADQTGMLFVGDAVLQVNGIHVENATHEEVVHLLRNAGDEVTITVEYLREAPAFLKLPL

B1: FZD2, Q14332 (peptide)
chain: TNSRHGETTV
B2: NCF1, P14598 (peptide)
chain: STKRKLASAV

target: T1, APBA1_1, Q02410; assay: holdup assay; set-up: key: below the threshold = too weak to quantify, mostly under pKd 3.1 to 4; settings: plain residues with an end cap or a label only (N-terminal biotin on a linker: ado-ado)

Row | Binder | pKd
1 | B1 | below the threshold
2 | B2 | below the threshold

target: T2, APBA1_2, Q02410; assay: holdup assay; set-up: key: below the threshold = too weak to quantify, mostly under pKd 3.1 to 4; settings: plain residues with an end cap or a label only (N-terminal biotin on a linker: ado-ado)

Row | Binder | pKd
3 | B1 | 3.71
4 | B2 | 3.88

target: T3, APBA2_2, Q99767; assay: holdup assay; set-up: key: below the threshold = too weak to quantify, mostly under pKd 3.1 to 4; settings: plain residues with an end cap or a label only (N-terminal biotin on a linker: ado-ado)

Row | Binder | pKd
5 | B1 | below the threshold
6 | B2 | below the threshold

target: T4, ARHGEF11, O15085; assay: holdup assay; set-up: key: below the threshold = too weak to quantify, mostly under pKd 3.1 to 4; settings: plain residues with an end cap or a label only (N-terminal biotin on a linker: ado-ado)

Row | Binder | pKd
7 | B1 | 4.07
8 | B2 | 3.74

target: T5, DFNB31_1, Q9P202; assay: holdup assay; set-up: key: below the threshold = too weak to quantify, mostly under pKd 3.1 to 4; settings: plain residues with an end cap or a label only (N-terminal biotin on a linker: ado-ado)

Row | Binder | pKd
9 | B1 | 3.78
10 | B2 | below the threshold

target: DLG2_3, Q15700; assay: holdup assay; set-up: key: below the threshold = too weak to quantify, mostly under pKd 3.1 to 4; settings: plain residues with an end cap or a label only (N-terminal biotin on a linker: ado-ado)

Row | Binder | pKd
11 | B1 | 4.38
12 | B2 | 4.09

target: T6, DLG3_3, Q92796; assay: holdup assay; set-up: key: below the threshold = too weak to quantify, mostly under pKd 3.1 to 4; settings: plain residues with an end cap or a label only (N-terminal biotin on a linker: ado-ado)

Row | Binder | pKd
13 | B1 | 4.24
14 | B2 | below the threshold

target: DLG5_1, Q8TDM6; assay: holdup assay; set-up: key: below the threshold = too weak to quantify, mostly under pKd 3.1 to 4; settings: plain residues with an end cap or a label only (N-terminal biotin on a linker: ado-ado)
Sequence (Q8TDM6 617-713): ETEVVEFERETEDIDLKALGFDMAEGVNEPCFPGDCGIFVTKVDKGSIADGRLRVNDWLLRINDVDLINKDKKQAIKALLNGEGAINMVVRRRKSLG

Row | Binder | pKd
15 | B1 | 3.48
16 | B2 | below the threshold

target: GRID2IP_2, A4D2P6; assay: holdup assay; set-up: key: below the threshold = too weak to quantify, mostly under pKd 3.1 to 4; settings: plain residues with an end cap or a label only (N-terminal biotin on a linker: ado-ado)
Sequence (A4D2P6 272-370): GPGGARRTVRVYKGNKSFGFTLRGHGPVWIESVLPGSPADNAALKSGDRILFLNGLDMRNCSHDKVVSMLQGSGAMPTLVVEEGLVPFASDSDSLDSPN

Row | Binder | pKd
17 | B1 | 3.53
18 | B2 | 4.28

target: T7, GRIP1_2, Q9Y3R0; assay: holdup assay; set-up: key: below the threshold = too weak to quantify, mostly under pKd 3.1 to 4; settings: plain residues with an end cap or a label only (N-terminal biotin on a linker: ado-ado)

Row | Binder | pKd
19 | B1 | below the threshold
20 | B2 | below the threshold

target: T8, GRIP1_3, Q9Y3R0; assay: holdup assay; set-up: key: below the threshold = too weak to quantify, mostly under pKd 3.1 to 4; settings: plain residues with an end cap or a label only (N-terminal biotin on a linker: ado-ado)

Row | Binder | pKd
21 | B1 | below the threshold
22 | B2 | below the threshold

target: T9, GRIP1_4, Q9Y3R0; assay: holdup assay; set-up: key: below the threshold = too weak to quantify, mostly under pKd 3.1 to 4; settings: plain residues with an end cap or a label only (N-terminal biotin on a linker: ado-ado)

Row | Binder | pKd
23 | B1 | below the threshold
24 | B2 | below the threshold

target: GRIP2_5, Q9C0E4; assay: holdup assay; set-up: key: below the threshold = too weak to quantify, mostly under pKd 3.1 to 4; settings: plain residues with an end cap or a label only (N-terminal biotin on a linker: ado-ado)
Sequence (Q9C0E4 544-642): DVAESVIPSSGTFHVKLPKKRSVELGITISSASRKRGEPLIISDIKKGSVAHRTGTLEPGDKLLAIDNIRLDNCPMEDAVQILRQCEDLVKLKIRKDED

Row | Binder | pKd
25 | B1 | below the threshold
26 | B2 | below the threshold

target: T10, HTRA4, P83105; assay: holdup assay; set-up: key: below the threshold = too weak to quantify, mostly under pKd 3.1 to 4; settings: plain residues with an end cap or a label only (N-terminal biotin on a linker: ado-ado)

Row | Binder | pKd
27 | B1 | below the threshold
28 | B2 | below the threshold

target: IL16_1, Q14005; assay: holdup assay; set-up: key: below the threshold = too weak to quantify, mostly under pKd 3.1 to 4; settings: plain residues with an end cap or a label only (N-terminal biotin on a linker: ado-ado)
Sequence (Q14005 210-306): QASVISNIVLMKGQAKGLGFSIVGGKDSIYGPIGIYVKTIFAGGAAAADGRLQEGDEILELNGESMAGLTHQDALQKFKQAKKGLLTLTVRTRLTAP

Row | Binder | pKd
29 | B1 | 3.76
30 | B2 | 3.52

target: IL16_3, Q14005; assay: holdup assay; set-up: key: below the threshold = too weak to quantify, mostly under pKd 3.1 to 4; settings: plain residues with an end cap or a label only (N-terminal biotin on a linker: ado-ado)
Sequence (Q14005 1107-1207): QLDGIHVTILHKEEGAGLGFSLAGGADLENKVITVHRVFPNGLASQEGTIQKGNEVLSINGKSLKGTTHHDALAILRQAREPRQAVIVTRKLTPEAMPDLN

Row | Binder | pKd
31 | B1 | below the threshold
32 | B2 | below the threshold

target: Inadl_4, Q8NI35; assay: holdup assay; set-up: key: below the threshold = too weak to quantify, mostly under pKd 3.1 to 4; settings: plain residues with an end cap or a label only (N-terminal biotin on a linker: ado-ado)
Sequence (Q8NI35 547-651): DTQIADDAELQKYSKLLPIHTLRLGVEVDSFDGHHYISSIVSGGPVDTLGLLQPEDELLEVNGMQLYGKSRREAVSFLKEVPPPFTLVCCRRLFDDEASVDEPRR

Row | Binder | pKd
33 | B1 | below the threshold
34 | B2 | below the threshold

target: MAST1, Q9Y2H9; assay: holdup assay; set-up: key: below the threshold = too weak to quantify, mostly under pKd 3.1 to 4; settings: plain residues with an end cap or a label only (N-terminal biotin on a linker: ado-ado)
Sequence (Q9Y2H9 962-1065): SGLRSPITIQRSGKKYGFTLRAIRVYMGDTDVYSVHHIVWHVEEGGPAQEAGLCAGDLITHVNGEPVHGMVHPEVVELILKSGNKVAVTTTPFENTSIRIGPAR

Row | Binder | pKd
35 | B1 | below the threshold
36 | B2 | below the threshold

target: T11, MPP6, Q9NZW5; assay: holdup assay; set-up: key: below the threshold = too weak to quantify, mostly under pKd 3.1 to 4; settings: plain residues with an end cap or a label only (N-terminal biotin on a linker: ado-ado)

Row | Binder | pKd
37 | B1 | below the threshold
38 | B2 | below the threshold

target: T12, MPP7, Q5T2T1; assay: holdup assay; set-up: key: below the threshold = too weak to quantify, mostly under pKd 3.1 to 4; settings: plain residues with an end cap or a label only (N-terminal biotin on a linker: ado-ado)

Row | Binder | pKd
39 | B1 | below the threshold
40 | B2 | below the threshold

target: NHERF2_2, Q15599; assay: holdup assay; set-up: key: below the threshold = too weak to quantify, mostly under pKd 3.1 to 4; settings: plain residues with an end cap or a label only (N-terminal biotin on a linker: ado-ado)
Sequence (Q15599 142-238): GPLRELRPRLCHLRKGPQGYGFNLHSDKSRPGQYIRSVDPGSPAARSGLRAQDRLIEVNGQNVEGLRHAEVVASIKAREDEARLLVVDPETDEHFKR

Row | Binder | pKd
41 | B1 | below the threshold
42 | B2 | below the threshold

target: PARD3_3, Q8TEW0; assay: holdup assay; set-up: key: below the threshold = too weak to quantify, mostly under pKd 3.1 to 4; settings: plain residues with an end cap or a label only (N-terminal biotin on a linker: ado-ado)
Sequence (Q8TEW0 582-685): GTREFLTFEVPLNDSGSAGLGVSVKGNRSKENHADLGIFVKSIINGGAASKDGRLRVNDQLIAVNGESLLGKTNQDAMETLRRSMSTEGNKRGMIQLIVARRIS

Row | Binder | pKd
43 | B1 | below the threshold
44 | B2 | below the threshold

target: T13, PDZD7_3, Q9H5P4; assay: holdup assay; set-up: key: below the threshold = too weak to quantify, mostly under pKd 3.1 to 4; settings: plain residues with an end cap or a label only (N-terminal biotin on a linker: ado-ado)

Row | Binder | pKd
45 | B1 | 4.26
46 | B2 | below the threshold

target: T14, SNTG2, Q9NY99; assay: holdup assay; set-up: key: below the threshold = too weak to quantify, mostly under pKd 3.1 to 4; settings: plain residues with an end cap or a label only (N-terminal biotin on a linker: ado-ado)

Row | Binder | pKd
47 | B1 | 4.29
48 | B2 | below the threshold
